From patent US20190022245A1

Molecular target: epidermal growth factor receptor (EGFR) on cells (human (on human cell lines)) (UniProt P00533)
Assay: cell-based or functional assay

region of interest (ROI) ratio of SW480 (EGFR+) to SW620 (EGFR-) tumors, 24 h: 2.04 | region of interest (ROI) ratio of SW480 (EGFR+) to SW620 (EGFR-) tumors, 48 h: 2.32 | region of interest (ROI) ratio of SW480 (EGFR+) to SW620 (EGFR-) tumors, 72 h: 2.33
B1: h15-2b Fab × EGFR scFv (monovalent anti-mPEG (h15-2b) anti-EGFR BsAb, example 2.3) (bispecific antibody, part only; not given: nothing essential named, not shown: another chain or arm of the molecule; ; small tags and cut ends)
light: DIQMTQSPSSLSASVGDRVTITCKASQDVNTSVAWYQQKPGKAPKLLIYWASTRHTGVPSRFSGSGSGTDFTFTISSLQPEDIATYYCLQYINYPYTFGQGTKLEIKRTVAAPSVFIFPPSDEQLKSGTASVVCLLNNFYPREAKVQWKVDNALQSGNSQESVTEQDSKDSTYSLSSTLTLSKADYEKHKLYACEVTHQGLSSPVTKSFNRGEC
heavy: EVQLVESGGGLVQPGGSLKLSCAASGFTFSNYWMNWVRQASGKGLEWVGEIRSKSNNYATHYAESVKGRFTISRDDSKNTAYLQMNSLKTEDTAVYYCSNRYYWGQGTLVTVSSASTKGPSVFPLAPCSRSTSESTAALGCLVKDYFPEPVTVSWNSGALTSGVHTFPAVLQSSGLYSLSSVVTVPSSNFGTQTYTCNVDHKPSNTKVDKTVERKGEQKLISEEDLGGGGSGGGGSGGGGSQLDIVMTQSPLSLPVTPGEPASISCRSSQNIVHNNGITYLEWYLQKPGQSPQLLIYKVSDRFSGVPDRFSGSGSGTDFTLKISRVEAEDVGVYYCFQGSHIPPTFGQGTKVEIKRAGGGGSGGGGSGGGGSQVQLVQSGAEVKKPGASVKVSCKASGYTFTSYWMHWVRQAPGQGLEWMGNIYPGSGGTNYAEKFKNRVTMTRDTSISTAYMELSRLRSDDTAVYYCARSGGPYFFDYWGQGTLVTVSS
